Laboratory results as given in paper PMC2924314, “Peptides derived from the HIV-1 integrase promote HIV-1 infection and multi-integration of viral cDNA in LEDGF/p75-knockdown cells” (Virology Journal, 2010).

Target: INS (IN derived-integrase stimulatory peptide) (HIV-1)
Test: ELISA

**Q.** Which Kd does the source give for “Lens Epithelium Derived Growth Factor p75 (LEDGF/p75), histidine-tagged recombinant, O75475 1-530 (natural protein; other documents disagree on this pair)” here?
**A.** 2200 nM
